Data: US11618906B2, “Hydroxylation techniques” (HYPHA DISCOVERY LTD., priority 2018, dated 2023)
Residue numbers refer to the chain shown, from its start. Numbers in names are those of the source.

B1: aluC09M33: cytochrome P450 aluC09 mutant T291I; amino acid sequence SEQ ID NO: 44 (protein, listed as Amycolatopsis lurida)
chain: MTDVEETTATLPLARKCPFSPPPEYERLRRESPVSRVGLPSGQTAWALTRLEDIREMLSSPHFSSDRQSPSFPLMVARQIRREDKPFRPSLIAMDPPEHSRARRDVVGEFTVKRMKALQPRIQQIVDEHLDALLAGPKPADLVQALSLPVPSLVICELLGVPYSDHEFFQSCSSRMLSREVTAEERMTAFEQLENYLDELVTKKEANATEDDLLGRQILKQRETGEADHGELVGLAFLLLIAGHETTANMISLGTVTLLENPDQLAKIKADPGKTLAAIEELLRVFTIAEIATSRFATADVEIGGTLIRAGEGVVGLSNAGNHDPDGFENPDTFDIERGARHHVAFGFGVHQCLGQNLARLELQIVFDTLFRRVPGLRIAVPVDELPFKHDSTIYGLHALPVTW
B2: aluC09M35: cytochrome P450 aluC09 mutant T291P; amino acid sequence SEQ ID NO: 52 (protein, listed as Amycolatopsis lurida)
chain: B1 chain with I291P

What was measured:
Type in all cases: biochemical
[1] = Metabolism of valsartan by P450 aluC09 and mutants; conditions: percent of substrate being converted; 0.125 mg/ml, 27° C., 16-20 hours; [CYP] per enzyme as in Table 8
In short: (§1)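 Conversion by UPLC-MS after acetonitrile extraction of 16-20 h shaken reactions at 27° C. Each held 0.125 mg/ml substrate, aluC09 mutant P450 plus ferredoxin aluF03 and reductase SCF15A, and NADP (1 mM) regenerated by 5 mM G6P with G6PDH, buffered at pH 7.4 phosphate with 5 mM MgCl2.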

[2] = Hydroxylation of flufenamic acid catalysed by cytochrome P450 aluC09 and mutants; conditions: for Flufenamic Acid (Substrate) 1.93 mins / Hydroxy-Flufenamic Acid (1) 1.69 mins / Hydroxy-Flufenamic Acid (2) 1.65 mins: % by UV peak area at 275 nm, 0.125 mg/ml substrate, 27° C., 16-20 hours; for Hydroxylated Ratio 1:2: flufenamic acid, ratio of UV peak areas at 275 nm
In short: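 Lyophilised CYP450aluC09 mutants with ferredoxin aluF03 and reductase SCF15A, in 50 mM potassium phosphate pH 7.4, 5 mM MgCl2, 0.125 mg/ml flufenamic acid, G6P/NADP/G6PDH NADPH regeneration. Shaken 16-20 h at 27° C; acetonitrile-quenched, conversion to two hydroxy products by UPLC-MS.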

[3] = Hydroxylation of aceclofenac catalysed by cytochrome P450 aluC09 and mutants; conditions: for Aceclofenac (Substrate) (1.80 mins) / Dihydroxy-Aceclofenac (1.42 mins) / Hydroxy-Aceclofenac (1) (1.64 min) / Hydroxy-Aceclofenac (2) (1.60 min): % by UV peak area at 275 nm, 0.125 mg/ml substrate, 27° C., 16-20 hours; for Hydroxylated Ratio 2:1: aceclofenac, ratio of UV peak areas at 275 nm
In short: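 Conversion was assessed by UPLC-MS (UV and MS detection) after acetonitrile extraction of reactions run 16-20 h at 27° C, shaking. Reactions contained substrate at 0.125 mg/ml, P450 mutant plus ferredoxin and reductase partners, 1 mM NADP with glucose-6-phosphate regeneration, in phosphate buffer pH 7.4.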

[4] = Metabolism of tivantinib by P450 aluC09 and mutants; conditions: percent of substrate being converted; 0.125 mg/ml, 27° C., 16-20 hours; [CYP] per enzyme as in Table 8
In short: as §1

[5] = Metabolism of bosentan by P450 aluC09 and mutants; conditions: percent of substrate being converted; 0.125 mg/ml, 27° C., 16-20 hours; [CYP] per enzyme as in Table 8
Experimental: (§2) Lyophilised material of mutants of CYP450aluC09, ferredoxinaluF03 and ferredoxin reductaseSCF15A was made as described in examples 3 and 4 and suspended in water (0.5 mL per vial) and biocatalysis was performed at 27° C. in the following conditions: 50 mM potassium phosphate pH 7.4, 5 mM MgCl2, 0.125 mg/ml substrate compound such as diclofenac (Sigma-Aldrich, UK), Aceclofenac (Tokyo Chemical Industry UK Ltd, UK), Indomethacin (Sigma-Aldrich, UK), Flufenamic acid (Sigma-Aldrich, UK), Napropamide (Sigma-Aldrich, UK), celecoxib (LC Laboratories, USA), valsartan (Tokyo Chemical Industry UK Ltd, UK), ruxolitinib (LC Laboratories, USA), 4-pyrrolidylacetophenone (Sigma-Aldrich, UK), tofacitinib (LC Laboratories, USA), bosentan (CarboSynth Ltd, UK), buparvaquone (MedChemtronica, Sweden), BIRB796 (Stratech Scientific Limited, UK), epothilone B (LC Laboratories, USA), ritonavir (Tokyo Chemical Industry UK Ltd, UK) or tivantinib (MedChemtronica, Sweden), P450AluC09 (concentration as in Table 8), 5 mM G6P, 1 mM NADP, 2 UN/ml G6PDH in a final volume of 100 μL. After 16-20 hours at 200 rpm (5 cm orbital shaker, Kuhner AG, Switzerland), reactions were extracted with an equal volume of acetonitrile, centrifuged to remove precipitated proteins and conversion assessed by UPLC-MS analysis.
(§3) However, of particular note when considering P450 concentration are the results for mutants M12, M20 and M34, as well as the deleterious impact on the range of substrate utility in mutants M39 and M40.

[6] = Metabolism of tofacitinib by P450 aluC09 and mutants; conditions: percent of substrate being converted; 0.125 mg/ml, 27° C., 16-20 hours; [CYP] per enzyme as in Table 8
In short: as §1

[7] = Metabolism of buparvaquone by P450 aluC09 and mutants; conditions: percent of substrate being converted; 0.125 mg/ml, 27° C., 16-20 hours; [CYP] per enzyme as in Table 8
Experimental: as §2, §3

[8] = Metabolism of celecoxib by P450 aluC09 and mutants; conditions: percent of substrate being converted; 0.125 mg/ml, 27° C., 16-20 hours; [CYP] per enzyme as in Table 8
In short: as §1

[9] = Metabolism of BIRB796 by P450 aluC09 and mutants; conditions: percent of substrate being converted; 0.125 mg/ml, 27° C., 16-20 hours; [CYP] per enzyme as in Table 8
In short: as §1

[10] = Metabolism of 4-pyrrolidylacetophenone by P450 aluC09 and mutants; conditions: percent of substrate being converted; 0.125 mg/ml, 27° C., 16-20 hours; [CYP] per enzyme as in Table 8
In short: as §1

[11] = O-demethylation of indomethacin catalysed by cytochrome P450 aluC09 and mutants; conditions: % by UV peak area at 275 nm; 0.125 mg/ml substrate, 27° C., 16-20 hours
In short: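 Lyophilised CYP450aluC09 mutants with ferredoxin aluF03 and reductase SCF15A, 0.125 mg/ml substrate, 50 mM potassium phosphate pH 7.4, 5 mM MgCl2, G6P/G6PDH/NADP recycling. Shaken 16-20 h at 27° C. Acetonitrile-quenched, conversion measured by UPLC-MS.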

[12] = Metabolism of ruxolitinib by P450 aluC09 and mutants; conditions: percent of substrate being converted; 0.125 mg/ml, 27° C., 16-20 hours; [CYP] per enzyme as in Table 8
In short: as §1

[13] = Metabolism of epothilone B by P450 aluC09 and mutants; conditions: percent of substrate being converted; 0.125 mg/ml, 27° C., 16-20 hours; [CYP] per enzyme as in Table 8
In short: as §1

[14] = Metabolism of ritonavir by P450 aluC09 and mutants; conditions: percent of substrate being converted; 0.125 mg/ml, 27° C., 16-20 hours; [CYP] per enzyme as in Table 8
In short: as §1

[15] = Hydroxylation of diclofenac catalysed by cytochrome P450 aluC09 and mutants (UPLC-PDA-MS); conditions: for 4′,5-dihydroxy-diclofenac 1.38 mins / 4′-hydroxy-diclofenac (1) 1.62 mins / 5-hydroxy-diclofenac (2) 1.58 mins / Diclofenac (Substrate) 1.81 mins: % by UV peak area at 275 nm, 0.125 mg/ml substrate, 27° C., 16-20 hours; for regioselectivity of hydroxylation (product ratio 4′-hydroxydiclofenac : 5-hydroxydiclofenac) / Hydroxylated Ratio hydroxy 1:hydroxy 2: diclofenac; for Hydroxylated Ratio hydroxy 1:hydroxy 2: ratio of UV peak areas at 275nm
In short: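 Lyophilised CYP450aluC09 or mutants, with ferredoxin aluF03 and reductase SCF15A, incubated 16-20 hours at 27° C with 0.125 mg/ml diclofenac in 50 mM potassium phosphate pH 7.4, 5 mM MgCl2, and G6P/NADP/G6PDH regeneration. Acetonitrile-extracted; conversion by UPLC-PDA-MS against authentic hydroxylated standards.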

[16] = Hydroxylation / de-N-ethylation of napropamide catalysed by cytochrome P450 aluC09 and mutants; conditions: for Desethyl Napropamide (1.62 min) / Desethyl-hydroxy-Napropamide (1.41 min) / Hydroxy-Napropamide (1) (1.53 min) / Hydroxy-Napropamide (2), (1.52 min) / M-2Da (unidentified) (1.89 min) / Napropamide (substrate): % by UV peak area at 275 nm, 0.125 mg/ml substrate, 27° C., 16-20 hours; for Hydroxylated Ratio 2:1: napropamide, ratio of UV peak areas
In short: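 Conversion of napropamide (0.125 mg/ml) to hydroxylated and de-ethylated metabolites was measured by UPLC-MS after acetonitrile extraction. Reactions ran 16-20 h at 27° C in pH 7.4 potassium phosphate (50 mM) with 5 mM MgCl2, 1 mM NADP, 5 mM G6P and 2 UN/ml G6PDH. Enzymes were lyophilised P450 aluC09 variants, ferredoxin aluF03 and ferredoxin reductase SCF15A.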

Row | Molecule | % conversions (avg) Valsartan [1] [%] | Flufenamic Acid (Substrate) 1.93 mins [2] [%] | Hydroxy-Flufenamic Acid (1) 1.69 mins [2] [%] | Hydroxy-Flufenamic Acid (2) 1.65 mins [2] [%] | Hydroxylated Ratio 1:2 [2] | Aceclofenac (Substrate) (1.80 mins) [3] [%] | Dihydroxy-Aceclofenac (1.42 mins) [3] [%] | Hydroxy-Aceclofenac (1) (1.64 min) [3] [%] | Hydroxy-Aceclofenac (2) (1.60 min) [3] [%] | Hydroxylated Ratio 2:1 [3] | % conversions (avg) Tivantinib [4] [%] | % conversions (avg) Bosentan [5] [%] | % conversions (avg) Tofacitinib [6] [%] | % conversions (avg) Buparvaquone [7] [%] | % conversions (avg) Celecoxib [8] [%] | % conversions (avg) BIRB796 [9] [%] | % conversions (avg) 4-pyrrolidylacetophenone [10] [%] | Indomethacin (1.74 mins) [11] [%] | O-demethyl-Indomethacin (1.52 mins) [11] [%] | % conversions (avg) Ruxolitinib [12] [%] | other results
1 | B1 | 12.4 | 98.3 | 1.0 | 0.6 | 1.6 | 30.8 | 8.8 | 41.7 | 18.6 | 0.4 | 29.6 | 98.9 | 1.1 | 8.2 | 2.8 | 13.5 | 7.9 | 92.8 | 7.2 | 30.6 | regioselectivity of hydroxylation of aceclofenac compared to the wild-type enzyme [3]: reversal of the regioselectivity; % conversions (avg) Epothilone B [13]: 21.8%; % conversions (avg) Ritonavir [14]: 41.3%; 4′,5-dihydroxy-diclofenac 1.38 mins [15]: 1.1%; 4′-hydroxy-diclofenac (1) 1.62 mins [15]: 29.5%; 5-hydroxy-diclofenac (2) 1.58 mins [15]: 6.7%; Diclofenac (Substrate) 1.81 mins [15]: 63.3%; regioselectivity of hydroxylation (product ratio 4′-hydroxydiclofenac : 5-hydroxydiclofenac) [15]: over four-fold; Hydroxylated Ratio hydroxy 1:hydroxy 2 [15]: 4.4; Desethyl Napropamide (1.62 min) [16]: 30.6%; Desethyl-hydroxy-Napropamide (1.41 min) [16]: 5.7%; Hydroxy-Napropamide (1) (1.53 min) [16]: 1.8%; Hydroxy-Napropamide (2), (1.52 min) [16]: 4.1%; M-2Da (unidentified) (1.89 min) [16]: 5.1%; Napropamide (substrate) [16]: 56.0%; Hydroxylated Ratio 2:1 [16]: 2.3
2 | B2 | 21.8 | 95.8 | 2.7 | 1.5 | 1.9 | 21.8 | 26.6 | 12.2 | 39.4 | 3.2 | 35.7 | 98.4 | 1.1 | 7.1 | 1.5 | 4.6 | 3.3 | 94.1 | 5.9 | 34.1 | % conversions (avg) Epothilone B [13]: 20.6%; % conversions (avg) Ritonavir [14]: 37.6%; 4′,5-dihydroxy-diclofenac 1.38 mins [15]: 0.9%; 4′-hydroxy-diclofenac (1) 1.62 mins [15]: 41.3%; 5-hydroxy-diclofenac (2) 1.58 mins [15]: 9.9%; Diclofenac (Substrate) 1.81 mins [15]: 48.2%; regioselectivity of hydroxylation (product ratio 4′-hydroxydiclofenac : 5-hydroxydiclofenac) [15]: over four-fold; Hydroxylated Ratio hydroxy 1:hydroxy 2 [15]: 4.2; Desethyl Napropamide (1.62 min) [16]: 36.6%; Desethyl-hydroxy-Napropamide (1.41 min) [16]: 4.8%; Hydroxy-Napropamide (1) (1.53 min) [16]: 1.2%; Hydroxy-Napropamide (2), (1.52 min) [16]: 3.6%; M-2Da (unidentified) (1.89 min) [16]: 5.3%; Napropamide (substrate) [16]: 51.0%; Hydroxylated Ratio 2:1 [16]: 3.0
